Results on five molecules are retold here after article PMC4742702 (mBio, 2016).

For orientation: stoichiometry N means a count of units in the complex or per binding partner. What is called Kd is the equilibrium constant for the complex coming apart. Low readings indicate tighter binding, high ones weaker binding.

In assay [1] the target is BppUct (C-terminal portion of Tuc2009 BppU, residues 194 to 322) (Lactococcus phage Tuc2009). Description: crystal structure.
In assay [2] the target is Tuc2009 BppL (RBP) as in the tripod (Lactococcus phage Tuc2009). Nature of the assay: crystal structure.
In assay [3] the target is serendipitously cleaved BppL head domain (residues 52 to 173) in the tripod crystal (Lactococcus phage Tuc2009). Description: crystal structure.
The target in assay [4] is trypsin-cleaved Tuc2009 RBP head domain (in the nano-L06 complex) (Lactococcus phage Tuc2009). Description: crystal structure.
Assay [5] addresses T1, phage Tuc2009 receptor binding protein (RBP, BppL, ORF53) (Lactococcus phage Tuc2009).
T1 chain: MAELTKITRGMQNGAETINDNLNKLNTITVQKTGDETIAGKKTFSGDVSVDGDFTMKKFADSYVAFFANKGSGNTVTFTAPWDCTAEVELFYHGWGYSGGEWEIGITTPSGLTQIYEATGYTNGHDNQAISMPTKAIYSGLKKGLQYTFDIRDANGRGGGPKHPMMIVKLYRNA
Nature of the assay: BLI. (In general: BLI is a label-free optical method that tracks binding on a fibre tip over time.)

Assay [6] deals with T2, Tuc2009 tripod BppUctAL complex (BppUct/BppA/BppL) (Lactococcus phage Tuc2009).
T2 chain 1: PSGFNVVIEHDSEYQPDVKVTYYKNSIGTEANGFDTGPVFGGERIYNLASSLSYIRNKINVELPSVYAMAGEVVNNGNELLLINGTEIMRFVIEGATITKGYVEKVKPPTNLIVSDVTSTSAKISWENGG
T2 chain 2: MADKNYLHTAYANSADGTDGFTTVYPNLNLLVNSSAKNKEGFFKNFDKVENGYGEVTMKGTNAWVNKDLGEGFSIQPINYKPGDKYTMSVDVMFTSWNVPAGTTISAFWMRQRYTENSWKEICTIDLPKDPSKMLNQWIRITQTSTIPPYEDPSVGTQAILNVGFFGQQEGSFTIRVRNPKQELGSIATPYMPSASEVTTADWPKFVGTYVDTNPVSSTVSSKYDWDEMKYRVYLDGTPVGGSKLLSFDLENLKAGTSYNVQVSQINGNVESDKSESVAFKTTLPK
T2 chain 3: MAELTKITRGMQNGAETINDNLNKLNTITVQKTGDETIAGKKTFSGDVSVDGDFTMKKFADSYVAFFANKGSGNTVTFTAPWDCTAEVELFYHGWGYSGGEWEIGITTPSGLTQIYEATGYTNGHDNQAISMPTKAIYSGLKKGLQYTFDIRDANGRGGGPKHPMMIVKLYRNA
Description: BLI.

Regarding “BppUct (C-terminal portion of Tuc2009 BppU, residues 194 to 322) (domain or fragment)”, in assay [1], the stoichiometry N stood at 3.

In assay [2], “Tuc2009 BppL (RBP) as in the tripod (natural protein)” yielded a stoichiometry N of 3.

Molecule “serendipitously cleaved BppL head domain (residues 52 to 173) in the tripod crystal (domain or fragment)” had a stoichiometry N in assay [3] of 3.

“trypsin-cleaved Tuc2009 RBP head domain (in the nano-L06 complex) (domain or fragment)” came in with a stoichiometry N in assay [4] of 3.

B1: nanobody nano-L06 (VHH)
VHH: QVQLVESGGGSVQAGGSLRLSCTASGFTFDDSDMGWYHQAPGNECELVSAIFSDGSTYYADSVKGRFTISRDNAKNTVYLQMNSLKPEDTAMYYCAAATTTVASPPVRHVCNGYWGQGTQVTVSS
For B1, the Kd was 9.1 ± 0.7 nM in assay [5] and 9.1 ± 0.6 nM in assay [6].
